Measured values as given in the supplement of paper PMC9170038.

How the values were obtained:
Conditions in all cases: FMN input: 0 or 200 uM; Eterna round: R93 (includes R88 designs)
MS2 coat protein [1] = experiment: apparent KD of MS2 coat protein, switch OFF state (with FMN for OFF switches, without FMN for ON switches); designed switch direction (-1 OFF switch, 1 ON switch): 1; higher = weaker reporter binding
Procedure, shortened: (§1)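 With or without constant ligand, designed RNA switches in 100 mM Tris-HCl pH 7.5, 80 mM KCl and 4 mM MgCl2 were titrated with SNAP-549-labelled MS2 coat protein. Concentrations went up in twofold steps from 0.7 or 1.5 nM to 3 µM. The switches had been transcribed on-chip from Illumina sequencing clusters, and apparent KD is the per-design median of normalised cluster binding-curve fits.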

MS2 coat protein [2] = experiment: apparent KD of MS2 coat protein, switch ON state; designed switch direction (-1 OFF switch, 1 ON switch): 1; higher = weaker reporter binding
Procedure, shortened: as §1

MS2 coat protein [3] = experiment: apparent KD of MS2 coat protein, switch OFF state (with FMN for OFF switches, without FMN for ON switches); designed switch direction (-1 OFF switch, 1 ON switch): -1; higher = weaker reporter binding
Procedure, shortened: as §1

MS2 coat protein [4] = experiment: apparent KD of MS2 coat protein, switch ON state; designed switch direction (-1 OFF switch, 1 ON switch): -1; higher = weaker reporter binding
Procedure, shortened: as §1

| Sequence | apparent KD of MS2 coat protein (MS2 coat protein [1]) | apparent KD of MS2 coat protein (MS2 coat protein [2]) | apparent KD of MS2 coat protein (MS2 coat protein [3]) | apparent KD of MS2 coat protein (MS2 coat protein [4]) |
| --- | --- | --- | --- | --- |
| AAAUAACAUGAGGAUCACCCAUGUUACAACAAUACAGGAUAUGUGGGUGAAAAUAGCAUGACAGAAGGGUACUGUA [SameState1 Malc#33] | 124 nM | 237 nM | – | – |
| CAGAAGGAGAGAGAGGAUAUCCAAAGGAAAACAUGAGGAUCACCCAUGUAAAAGGUAGGAAAUUGGGAGAAGGCUCAAGAGAGAG [salish99-ss2-110] | 33.3 nM | 33.2 nM | – | – |
| GAAAAACAUGAGGAUCACCCAUGUGAAAAUAUGGGAGGAUAUACGAAGUCGAAAGUCAGAGUAGAAGGCCUAAAAG [Garnet 33] | 73.3 nM | 26.7 nM | – | – |
| UAUCAUUACACGAAGGAUAUCGAUAAUUGAACAUGAGGAUCACCCAUGUGCCAUCCCUUACAGUUCGAGAAGGUCGAGGGUGAAG [JR_SS002_Sub707] | 299 nM | 142 nM | – | – |
| GAAAAACAUGAGGAUCACCCAUGUAGAAAUAUGGGAGGAUAUACAAAGACGGAAGUCAAAGUAGAAGGCCUAAAAG [Mat - Same State 1 - Eli mod - D7] | 71.2 nM | 27.9 nM | – | – |
| GGAGCCGGCACUGAGGAUAUUCAUAUUAAAACAUGAGGAUCACCCAUGUAGGCCAGAAGGCCUUGGGAGAAGGCAGGUCGGCCCG [Bibimaor] | 252 nM | 18.5 nM | – | – |
| AACAAUCUAUCUGAGGAUAUGUGUCGAAAGACAUGAGGAUCACCCAUGUGAAAACAUGAAAAAUCACAGAAGGCAGAUAGAUUGA [SS2: 1143] | 146 nM | 45.8 nM | – | – |
| AAAAAACAUGAGGAUCACCCAUGUCAAAAGACAUGAGGAUAUGUACAGACUUCGGUCUGUACAGAAGGCAUGUAAA [SS1 - 1015] | 273 nM | 24.6 nM | – | – |
| ACAAAGCUACACUAGGAUAUGGGUGUCUAAACAUGAGGAUCACCCAUGUGAUGGCAAAACAAAGCUCAGAAGGAGUCGUAGCCCA [Bientevece] | 34.9 nM | 15 nM | – | – |
| AAAACACAUGAGGAUCACCCAUGUGCCUAAUUCGCAGGAUAUUUCUCGAUUAAAUGAUAGGAAGAAGGGUGAUAAA [Nob's Hobby 36 - Jieux - Same State 1] | 40.9 nM | 186 nM | – | – |
| GAAAAACAUGAGGAUCACCCAUGUAGAAAUAUGGGAGGAUAUACAAAGACGUAAGUCAAAGUAGAAGGCCUAAAAG [Mat - Same State 1 - Eli mod - D8] | 76.9 nM | 19.1 nM | – | – |
| AUAAAACAUGAGGAUCACCCAUGUAGAAAUAUGGGAGGAUAUACUAGAUCGAAAGAUCUAGUAGAAGGCCUAAAAG [JL Mod of Eli 1] | 60.7 nM | 27.6 nM | – | – |
| ACUACACAUGAGGAUCACCCAUGUCAGGUCGGACUAGGAUAUUAUAAACCAGAGUAAAAAUAAGAAGGAGUAGAAA [JR_SS001_Sub309] | 29.9 nM | 37.9 nM | – | – |
| GAAAAACAUGAGGAUCACCCAUGUAAGAUAAACACAGGAUAUGCGAAAAGAAACAAAGAAGCAGAAGGGUGAAGAA [Mat - Same State 1 - Tesla mod - 46] | 30.2 nM | 18 nM | – | – |
| GAGGACAUAGUUCAGGAUAUAUGAAUAGUCACAUGAGGAUCACCCAUGUCCAUUUAUAUGGGCACAUAGAAGGGAGGUAGUUAUC [SameState2 Malc#26] | 417 nM | 205 nM | – | – |
| AAUAUACAUGAGGAUCACCCAUGUUUUAAUAACUGAGGAUAUACGGGUGAAAACAGCAUAGUAGAAGGCAGAAAAA [SameState1 Malc#5] | 89.1 nM | 42.2 nM | – | – |
| AAUCCAAAUAGUCAGGAUAUCAAAAAUAAGACAUGAGGAUCACCCAUGUACUUAGUAAAAGUAAAUGAGAAGGGACAGGGUGAAA [JR_SS002_Sub403] | 29.4 nM | 21.4 nM | – | – |
| AGAAAACAUGAGGAUCACCCAUGUAGGAAUAUGGGAGGAUAUACAGAGACGAAAGUCAGAGUAGAAGGCCUAAGAA [salish99-SS1-088] | 96.7 nM | 24 nM | – | – |
| AACAAACAUGAGGAUCACCCAUGUAGAAACAUGGGAGGAUAUACGAAGACGAAAGUCAAAGUAGAAGGCCUAAAAA [Garnet 91] | 60.9 nM | 69.1 nM | – | – |
| GUUGAACAUGAGGAUCACCCAUGUCUCAACAGUCAAGGAUAUGGGUCAUGCAGAUGAAUACCAGAAGGUGAAUAAA [Zaorxe] | 33.6 nM | 15.8 nM | – | – |
| AAAUAAAUGACUCAGGAUAUAUCAUAGAAUACAUGAGGAUCACCCAUGUUUUAAUAACAUGUUUGGUAGAAGGGAGUCAAUAAAU [LROPPY Same State 2 - v05_deltaG=1.86] | 116 nM | 25.9 nM | – | – |
| AUGGUGUAGGUACAGGAUAUGUUGCUCGUAACAUGAGGAUCACCCAUGUACCUAUGAGAUUAAAUGCAGAAGGGUGCACACCACG [Usbivece] | 35.5 nM | 70.1 nM | – | – |

| Sequence | apparent KD of MS2 coat protein (MS2 coat protein [1]) | apparent KD of MS2 coat protein (MS2 coat protein [2]) | apparent KD of MS2 coat protein (MS2 coat protein [3]) | apparent KD of MS2 coat protein (MS2 coat protein [4]) |
| --- | --- | --- | --- | --- |
| AAAACACAUGAGGAUCACCCAUGUAAAAACAAGGGAGGAUAUGCUUGGAAAACAUGCUAUGCAGAAGGCUCAAGUG [SS1 - 11] | 31.1 nM | 42.9 nM | – | – |
| AAAAUAAAAAGGUAGGAUAUGGGUAAAACUACAUGAGGAUCACCCAUGUAAUAAAAAGAAAAAAACCAGAAGGACCAAAAUAAAA [72%, More Wateronthemoon, 8] | 34.7 nM | 13.2 nM | – | – |
| AGUCAACAUGAGGAUCACCCAUGUCUGAGAGCAUGAGGAUAUCUAGAUGGGCAGCAUGAUAGAGAAGGCAUGCGCC [Biongear] | 116 nM | 173 nM | – | – |
| AAAAAGUGAGGAUAUGCAGUGUCCUGUAGACGCGAGCACUUGUAGAAGGCACAUGAGGAUCACCCAUGUUUAAA [EX4 Malc#28] | – | – | 22.1 nM | 24 nM |
| AGAAAACAUGAGGAUCACCCAUGUCAGGAUAUGAAAAAGAAAAGAAAAGAAAGAAGAAUCAGAAGGGACAAGAA [Senedj] | – | – | 40.3 nM | 38.2 nM |
| CAAGGUGGAGGAUAUACAUGAGGAUCACCCAUGUAAGGACAAUAAAUAAGAUGAAGAAGUAGAAGGCCACUCAA [e3-3] | – | – | 42.1 nM | 41.5 nM |
| AAAAGGUGAGGAUAUAUGAAAAAAAAAAAAAAAAAAAAAAAAUAGAAGGCACAUGAGGAUCACCCAUGUAAAAA [LROPPY Exclusion 4 - v04_ on a whim] | – | – | 27.2 nM | 36.9 nM |
| AAAAAGUGAGGAUAUACAUGAGGAUCACCCAUGUGAAAGUCGAAAAAAAAGACAAGAAGUAGAAGGCACAAAAA [Fiskers Exclusion 3 D2 variant] | – | – | 29.3 nM | 24.3 nM |
| UAAAGACAUGAGGAUCACCCAUGUGAGGAUAUCGGAGAUAACAGAACAUCAAGUUCAGCGAGAAGGCACAGGAA [JR_Exc001_Sub403] | – | – | 65.5 nM | 47 nM |
| GGUUGACAAGGAUAUACAUGAGGAUCACCCAUGUGAGAGAAAAAAGUGAGAAAGAAAAGUAGAAGGUGUUGACG [salish99-ex3-62] | – | – | 85 nM | 31 nM |
| AUAAACAGAGGAUAUACACAAAAUAAAGAAAAUAAAGAAACACAUGAGGAUCACCCAUGUAGAAGGCUGGAAAA | – | – | 22.7 nM | 23.3 nM |
| AUCUUGUCAGGAUAUGACUACAUAAAAAAAAAAAAAUGUAGUCAGAAGGGACAUGAGGAUCACCCAUGUACCAA [HSL_Exclusion 4 64% 2] | – | – | 24.1 nM | 29.1 nM |
| AAGAAGCAAGGAUAUACAUGAGGAUCACCCAUGUAAAAGAAAGAAAAGGGAAAGAAAAGUAGAAGGUGCGAAAA [Ruby 70] | – | – | 51.9 nM | 29.9 nM |
| CUCAAGUGAGGAUAUCAGUAGUAAAAAAAUAAAAUUACUACUGAGAAGGCACAUGAGGAUCACCCAUGUUCCAA [EX4 342: Super Stable 42] | – | – | 181 nM | 124 nM |
| CAGUACUGAGGAUAUACAUGAGGAUCACCCAUGUGGUCCAGCUAGGAAACUAGCACGUGUAGAAGGCAGUACUG [Ex3: 840] | – | – | 20 nM | 29.5 nM |
| GACACCGGAGGAUAUACAAGUCCUUACUGUCUAAAACCAUGACAUGAGGAUCACCCAUGUAGAAGGCCGAAAAG [Atbela] | – | – | 118 nM | 63.3 nM |
| UAAAGACAUGAGGAUCACCCAUGUGAGGAUAUCGGAGAUAACAGAACAUCAAGUUCAACGAGAAGGCACAGAAA [JR_Exc001_Sub401] | – | – | 94.7 nM | 47.4 nM |
| AAAACUGGAGGAUAUACAUGAGGAUCACCCAUGUGUGGGUAUACUGUGUCGGCGUCAGGUAGAAGGCCAAAAAA [Gilly Gone Silly 29 - Jieux - Exclusion 3] | – | – | 151 nM | 146 nM |
| AACUGACAUGAGGAUCACCCAUGUCAGGAUAUGCUUCAUAAAAACAAACAAAAAUGAUGCAGAAGGGACAUGGA [Design 30 :P Sub-opt 6] | – | – | 32.3 nM | 19.6 nM |
| AAAUUAGGAGGAUAUACAUGAGGAUCACCCAUGUGACGAUGUUACUGCAUGAAGCCAAGUAGAAGGUCUAAGAA [Lacelaatdi] | – | – | 49.5 nM | 24.7 nM |
| GCUGGCCAAGGAUAUACAUGAGGAUCACCCAUGUGAGAGAAAAAAGUGAGAAAGAAAAGUAGAAGGUGGUUAGG [salish99-ex3-114] | – | – | 41 nM | 43.9 nM |
